In the supplement of paper PMC7877785:
± gives the uncertainty stated by the source.

Assay: self-splicing fitness, log relative to wild type (ln ratio); higher = more splicing; Tetrahymena group I intron in knt gene, E. coli kanamycin selection, DiMSum; sequences stand for … in CUCUCU…GGAGGGAAAAGUUAUCAGGCAUGCACCUGGUAGCUAGUCUUUAAACCAAUAGAUUGCAUCGGUUUAAAAGGCAAGACCGUCAAAUUGCGGGAAAGGGGUCAACAGCCGUUCAGUACCAAGUCUCAGGGGAAACUUUGAGAUGGCCUUGCAAAGGGUAUGGUAAUAAGCUGACGGACAUGGUCCUAACCACGCAGCCAAGUCCUAAGUCAACAGAUCUUCUGUUGAUAUGGAUGCAGUUCACAGACUAAAUGUCGGUCGGGGAAGAUGUAUUCUUCUCAUAAGAUAUAGUCGGACCUCUCCUUAAUGGGAGCUAGCGGAUGAAGUGAUGCAACACUGGAGCCGCUGGGAACUAAUUUGUAUGCGAAAGUAUAUUGAUUAGUUUUGGAGUACUCGUGGUCG
Outline: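 A randomised library covering all eight P1ex-region intron nucleotides was built with the intron in the knt kanamycin-resistance gene on pET-22b(+) and held in E. coli BL21(DE3). Cells were grown overnight at 37°C or 30°C on LB agar, with or without 25 μg/mL kanamycin, plus 100 μg/mL carbenicillin, 50 μM IPTG and 0.2% rhamnose, and pooled colonies were amplicon-sequenced on an Illumina HiSeq 2500. DiMSum fitness is the error-weighted combination of wild-type-normalised replicate fold changes, kanamycin versus none.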

Sequence | self-splicing fitness (ln) (30 °C) | self-splicing fitness (ln) (37 °C)
CCGCAGCAAUAUUACGUCUG | -3.34 ± 0.17 | -3.13 ± 0.18
CCGCAGCAAUAUUACGUGGU | -3.29 ± 0.13 | -2.25 ± 0.13
CCGCAGCAAUAUUACGUUUC | -3.08 ± 0.31 | -2.93 ± 0.29
CCGGAGCAAUAUUACGAAGU | -4.05 ± 0.26 | -1.53 ± 0.23
CCGGAGCAAUAUUACGAGCA |  | -0.395 ± 0.25
CCGGAGCAAUAUUACGCAAC | -1.66 ± 0.4 | -2.92 ± 0.47
CCGGAGCAAUAUUACGCAGC |  | -2.52 ± 0.37
CCGGAGCAAUAUUACGCCCA | -3.21 ± 0.32 | -2.06 ± 0.43
CCGGAGCAAUAUUACGCGUU | -2.5 ± 0.28 | -2.28 ± 0.24
CCGGAGCAAUAUUACGCUUU | -4.14 ± 0.3 | -2.47 ± 0.17
CCGGAGCAAUAUUACGGCCU | -4.41 ± 0.28 | -3.79 ± 0.23
CCGGAGCAAUAUUACGGGAG | -3.98 ± 0.27 | -2.13 ± 0.26
CCGGAGCAAUAUUACGGGGA | -2.97 ± 0.2 | -2.73 ± 0.3
CCGGAGCAAUAUUACGGUCA | -4.22 ± 0.47 | 
CCGGAGCAAUAUUACGGUGU | -3.21 ± 0.16 | -2.13 ± 0.19
CCGGAGCAAUAUUACGGUUU | -3.33 ± 0.25 | -2.55 ± 0.18
CCGGAGCAAUAUUACGUAAU | -3.95 ± 0.15 | -3.36 ± 0.23
CCGGAGCAAUAUUACGUACG | -0.407 ± 0.14 | -0.609 ± 0.18
CCGGAGCAAUAUUACGUCAG | -1.42 ± 0.12 | -1.17 ± 0.15
CCGGAGCAAUAUUACGUGUC | -3.36 ± 0.14 | -2.82 ± 0.14
CCGGAGCAAUAUUACGUUAA | -2.42 ± 0.26 | -1.93 ± 0.41
CCGGAGCAAUAUUACGUUAG | -1.47 ± 0.078 | -0.769 ± 0.11

Sequence | self-splicing fitness (ln) (30 °C) | self-splicing fitness (ln) (37 °C)
CCGGAGCAAUAUUACGUUCU | -1.23 ± 0.14 | 
CCGGAGCAAUAUUACGUUUU | -3.67 ± 0.3 | -2.6 ± 0.38
CCGUAGCAAUAUUACGACCG | -0.302 ± 0.12 | 0.31 ± 0.2
CCGUAGCAAUAUUACGAGCA |  | -1.37 ± 0.33
CCGUAGCAAUAUUACGAGGU | -3.33 ± 0.19 | -2.46 ± 0.22
CCGUAGCAAUAUUACGAGUU | -3.11 ± 0.15 | -3.07 ± 0.18
CCGUAGCAAUAUUACGAUAG | -1.22 ± 0.29 | -0.918 ± 0.18
CCGUAGCAAUAUUACGCCGA | -2.64 ± 0.22 | -1.99 ± 0.19
CCGUAGCAAUAUUACGCCGC | -3.84 ± 0.26 | -2.68 ± 0.34
CCGUAGCAAUAUUACGCGUC | -3.42 ± 0.15 | -1.78 ± 0.15
CCGUAGCAAUAUUACGGGGU | -3.96 ± 0.24 | -1.71 ± 0.2
CCGUAGCAAUAUUACGGUAC | -3.37 ± 0.3 | 
CCGUAGCAAUAUUACGUAAA | -3.22 ± 0.13 | -2.38 ± 0.23
CCGUAGCAAUAUUACGUCUU | -4.01 ± 0.34 | -2.96 ± 0.23
CCGUAGCAAUAUUACGUGUG | -2.36 ± 0.095 | -1.06 ± 0.082
CCGUAGCAAUAUUACGUGUU | -3.35 ± 0.2 | -2.47 ± 0.18
CCGUAGCAAUAUUACGUUUG | -1 ± 0.081 | -0.134 ± 0.096
CCUAAGCAAUAUUACGAAAG | -1.75 ± 0.18 | 0.000192 ± 0.18
CCUAAGCAAUAUUACGAAUU | -3.89 ± 0.22 | -1.79 ± 0.21
CCUAAGCAAUAUUACGACGA | -2.67 ± 0.24 | -2.1 ± 0.38
CCUAAGCAAUAUUACGACGU | -3.61 ± 0.29 | -2.17 ± 0.22
CCUAAGCAAUAUUACGAGGA | -1.99 ± 0.15 | -1.85 ± 0.13
